Laboratory results: publication PMC3374832, “The Structure of the Oligomerization Domain of Lsr2 from Mycobacterium tuberculosis Reveals a Mechanism for Chromosome Organization and Protection” (PLoS ONE, 2012)

Target: the molecule itself
Assay: SDS-PAGE

B1: full-length Lsr2 from Mycobacterium tuberculosis (natural protein)
chain: not shown
notes: Lsr2 (Rv3597c) of Mycobacterium tuberculosis H37Rv, full length; also called Rv3597c
- binding result: binds
